Blank lines part the entries; values can stand above or below the molecule they belong to.
How the values were obtained:
Format in all cases: cell-based
ERβ = target: T1, ERβ (Homo sapiens, UniProt Q92731); experiment: Mammalian two-hybrid assay with VP16 full length receptor: ERβ; conditions: 1 μM estradiol
T1 construct: plus VP16 fused to the indicated full length receptors; expressed in transfected cells; host or cells: CV-1
Method: (§1) FIG. 6C1-3 illustrate the association of STAMP with assorted steroid/nuclear receptors, including glucocorticoid receptors (GRs), progesterone receptors (PRs), androgen receptors (ARs), estrogen receptors (ER α or β), PPARγ2 receptors, thyroid receptor beta (TR), and retinoid (α) receptors (RAR α or RXR α). Triplicate samples of CV-1 cells were transfected (as described for FIG. 6B) with GAL, or GAL fused to TIF2.4 or STAMP834C, plus VP16 fused to the indicated full length receptors and incubated with the appropriate steroid (1 μM Dex, 20 nM R5020, 1 nM R1881, 0.1 μM triiodothyronine, or 1 μM estradiol, roziglitazone, or 9-cis-retinoic acid). The average relative luciferase activities of 2-3 experiments±S.E.M. were then plotted. FIG. 6C1 illustrates the effects of STAMP association upon GR, PR and AR induced expression. FIG. 6C2 illustrates the effects of STAMP association upon ERα, ERβ and PPARγ2 induced expression. FIG. 6C3 illustrates the effects of STAMP association upon TR, RARα and RXRα induced expression.
(§2) These assays were conducted as described (He et al., 2002). […]

RAR α = target: T2, RAR α (Homo sapiens, UniProt P10276); experiment: Mammalian two-hybrid assay with VP16 full length receptor: RARα; conditions: 1 μM 9-cis-retinoic acid
T2 construct: plus VP16 fused to the indicated full length receptors; expressed in transfected cells; host or cells: CV-1
T2 sequence (P10276 1-462): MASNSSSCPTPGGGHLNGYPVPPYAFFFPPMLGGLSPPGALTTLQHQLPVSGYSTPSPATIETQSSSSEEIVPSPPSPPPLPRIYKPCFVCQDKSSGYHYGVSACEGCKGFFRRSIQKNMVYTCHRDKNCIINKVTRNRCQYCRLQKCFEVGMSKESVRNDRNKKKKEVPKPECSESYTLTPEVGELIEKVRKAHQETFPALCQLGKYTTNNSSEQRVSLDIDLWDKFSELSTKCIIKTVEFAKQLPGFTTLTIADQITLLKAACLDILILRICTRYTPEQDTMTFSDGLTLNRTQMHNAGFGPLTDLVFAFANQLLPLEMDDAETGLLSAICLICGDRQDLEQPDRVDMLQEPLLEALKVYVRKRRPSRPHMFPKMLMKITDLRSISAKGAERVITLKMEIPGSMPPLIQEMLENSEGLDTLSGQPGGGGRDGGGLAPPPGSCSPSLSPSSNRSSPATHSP
Method: as §1, §2

CBP = target: T3, CBP (Homo sapiens, UniProt Q92793); experiment: Mammalian two-hybrid assay with CBP; conditions: data not shown
T3 construct: expressed in transfected cells; host or cells: CV-1 (the same two-hybrid assay)
Method: These assays were conducted as described (He et al., 2002). In particular, the recommended procedure for the Mammalian Matchmaker two-hybrid assay kit (Clontech) was modified slightly by changing from a chloramphenicol acetyltransferase reporter to a Luciferase Reporter pFRLuc (Stratagene), which is under the control of five repeats of the upstream activating sequence for the binding of GAL4.

coll3 promoter = experiment: ChIP assay on the endogenous coll3 promoter in U2OS.rGR cells; conditions: 1 μM Dex, after 20 min of steroid treatment; HA/STAMP
Method: FIG. 5C illustrates that STAMP and GR are co-localized on the promoter of an endogenous regulated gene as detected by chromatin immunoprecipitation (ChIP) assays. U2OS.rGR cells were treated with 1 μM Dex and then processed after 0 to 80 min as described in Example 1. The binding of GR and STAMP to the coll3 promoter was determined by the ability of PCR to amplify coll3 promoter sequences in the DNA that had been co-immunoprecipitated by anti-GR and anti-HA (to immobilize HA/STAMP) antibodies, respectively (upper panel). […] Similar results were obtained in two additional experiments.
The basic method of Ma et al. (Ma et al. (2003) Methods Enzymol. 364: […], was used with modifications. Two days before harvest, U2OS.rGR cells were seeded into 150 mm dishes at 3,000,000 cells per dish in phenol-red free medium with 10% charcoal/dextran-stripped fetal bovine serum. Each dish was transfected on the next day with 15 μg HA-STAMP and 60 μl Liopfectamine. On the third day, after brief ligand treatment, formaldehyde (37%) was added directly into the medium to a final concentration of 1% (37° C., 10 min), which was followed by glycine to a final concentration of 0.125 M (room temperature, 5 min with shaking). Cells were washed with (4° C.) cold PBS twice and harvested by scraping into 5 ml of cold (4° C.) PBS with a protease inhibitor cocktail (Roche). […]

T3 sequence (Q92793 whole entry): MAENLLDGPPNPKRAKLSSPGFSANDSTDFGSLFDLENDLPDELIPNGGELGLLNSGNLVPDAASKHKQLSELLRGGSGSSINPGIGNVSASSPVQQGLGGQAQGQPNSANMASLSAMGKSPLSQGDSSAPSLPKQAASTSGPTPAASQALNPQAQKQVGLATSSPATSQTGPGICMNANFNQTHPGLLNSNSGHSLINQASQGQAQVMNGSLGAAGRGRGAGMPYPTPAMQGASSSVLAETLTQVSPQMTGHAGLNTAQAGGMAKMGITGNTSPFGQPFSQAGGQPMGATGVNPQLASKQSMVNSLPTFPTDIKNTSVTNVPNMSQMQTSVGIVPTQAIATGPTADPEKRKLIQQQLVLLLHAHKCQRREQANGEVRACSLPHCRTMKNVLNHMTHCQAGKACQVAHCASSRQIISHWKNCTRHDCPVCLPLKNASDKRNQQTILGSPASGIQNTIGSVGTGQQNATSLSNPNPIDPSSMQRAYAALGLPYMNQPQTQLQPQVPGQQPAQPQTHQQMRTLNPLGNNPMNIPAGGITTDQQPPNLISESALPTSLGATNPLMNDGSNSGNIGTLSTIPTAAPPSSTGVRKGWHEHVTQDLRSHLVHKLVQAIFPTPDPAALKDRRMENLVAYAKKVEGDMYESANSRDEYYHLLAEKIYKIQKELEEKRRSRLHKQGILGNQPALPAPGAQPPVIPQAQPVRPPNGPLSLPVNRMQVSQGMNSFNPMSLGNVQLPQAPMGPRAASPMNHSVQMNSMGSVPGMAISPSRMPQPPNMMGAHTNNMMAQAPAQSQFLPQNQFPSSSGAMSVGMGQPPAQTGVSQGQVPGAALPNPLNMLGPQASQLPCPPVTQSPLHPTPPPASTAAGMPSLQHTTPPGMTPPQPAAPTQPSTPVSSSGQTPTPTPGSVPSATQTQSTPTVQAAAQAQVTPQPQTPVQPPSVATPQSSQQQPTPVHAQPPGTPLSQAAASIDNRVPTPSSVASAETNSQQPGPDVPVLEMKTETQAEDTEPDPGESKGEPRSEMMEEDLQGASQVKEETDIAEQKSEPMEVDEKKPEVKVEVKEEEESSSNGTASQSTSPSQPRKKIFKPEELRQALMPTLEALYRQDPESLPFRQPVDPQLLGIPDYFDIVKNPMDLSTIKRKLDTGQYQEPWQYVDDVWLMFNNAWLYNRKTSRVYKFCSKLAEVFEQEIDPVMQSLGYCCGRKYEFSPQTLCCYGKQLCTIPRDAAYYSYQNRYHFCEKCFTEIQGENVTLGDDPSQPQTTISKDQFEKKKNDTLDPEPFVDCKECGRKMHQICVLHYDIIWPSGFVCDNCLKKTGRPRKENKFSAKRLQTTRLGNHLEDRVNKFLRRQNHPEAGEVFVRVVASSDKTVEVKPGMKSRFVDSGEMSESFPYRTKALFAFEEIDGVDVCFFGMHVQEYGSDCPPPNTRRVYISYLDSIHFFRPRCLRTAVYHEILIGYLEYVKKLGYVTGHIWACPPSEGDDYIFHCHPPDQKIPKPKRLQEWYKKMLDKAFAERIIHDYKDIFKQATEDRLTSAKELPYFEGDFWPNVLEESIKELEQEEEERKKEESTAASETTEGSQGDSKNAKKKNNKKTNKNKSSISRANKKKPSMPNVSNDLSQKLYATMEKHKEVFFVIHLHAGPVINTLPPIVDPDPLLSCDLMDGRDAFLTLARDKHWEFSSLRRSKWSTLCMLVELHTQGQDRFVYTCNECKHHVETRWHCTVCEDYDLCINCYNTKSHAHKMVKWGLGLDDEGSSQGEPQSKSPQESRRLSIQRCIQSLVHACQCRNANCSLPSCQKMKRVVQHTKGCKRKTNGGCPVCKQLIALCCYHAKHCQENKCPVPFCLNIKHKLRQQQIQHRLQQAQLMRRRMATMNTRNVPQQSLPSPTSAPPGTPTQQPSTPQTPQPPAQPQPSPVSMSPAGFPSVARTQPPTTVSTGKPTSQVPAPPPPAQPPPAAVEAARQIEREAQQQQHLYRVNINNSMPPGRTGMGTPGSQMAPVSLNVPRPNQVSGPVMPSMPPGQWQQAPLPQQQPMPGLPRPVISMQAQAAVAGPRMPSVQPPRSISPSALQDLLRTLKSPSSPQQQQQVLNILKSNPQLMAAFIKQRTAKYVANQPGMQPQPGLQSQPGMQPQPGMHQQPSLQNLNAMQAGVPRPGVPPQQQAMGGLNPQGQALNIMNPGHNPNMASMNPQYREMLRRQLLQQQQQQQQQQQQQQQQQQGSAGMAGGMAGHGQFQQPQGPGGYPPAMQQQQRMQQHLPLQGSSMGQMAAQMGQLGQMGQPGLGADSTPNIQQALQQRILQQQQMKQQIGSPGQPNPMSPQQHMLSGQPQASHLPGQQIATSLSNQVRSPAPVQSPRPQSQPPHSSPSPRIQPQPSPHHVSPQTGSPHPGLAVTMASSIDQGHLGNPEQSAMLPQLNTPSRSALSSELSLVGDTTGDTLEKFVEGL
T1 sequence (Q92731 whole entry, species assumed, the tested form may be a part): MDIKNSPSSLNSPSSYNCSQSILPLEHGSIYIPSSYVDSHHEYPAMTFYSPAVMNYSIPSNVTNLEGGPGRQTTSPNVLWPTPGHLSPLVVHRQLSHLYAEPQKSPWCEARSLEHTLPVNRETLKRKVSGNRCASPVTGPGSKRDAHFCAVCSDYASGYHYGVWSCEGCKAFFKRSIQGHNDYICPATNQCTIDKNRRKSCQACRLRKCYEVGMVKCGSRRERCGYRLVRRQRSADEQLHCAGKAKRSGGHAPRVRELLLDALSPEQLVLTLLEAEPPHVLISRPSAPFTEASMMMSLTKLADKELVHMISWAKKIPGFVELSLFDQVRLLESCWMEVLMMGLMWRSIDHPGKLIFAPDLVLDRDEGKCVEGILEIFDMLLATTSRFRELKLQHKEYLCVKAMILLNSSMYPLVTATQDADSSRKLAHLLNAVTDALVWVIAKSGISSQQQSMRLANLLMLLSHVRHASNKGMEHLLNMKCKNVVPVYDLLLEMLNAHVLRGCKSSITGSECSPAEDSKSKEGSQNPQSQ

interaction with estrogen receptor β (ERβ): lack of interaction
interaction with retinoid (α) receptor (RAR α): lack of interaction
B1: STAMP834C: STAMP fragment amino acids 834-1277, receptor interaction domain (RID) (protein)
chain: GDHPETIMEEVKIKPPKQQQTTEIHSDKLSRFTTSAEKEAKLVYSNSSSGPTATLQKIPNTHLSSVTTSDLSPGPCHHSSLSQIPSAIPSMPHQPTILLNTVSASASPCLHPGAQNIPSPTGLPRCRSGSHTIGPFSSFQSAAHIYSQKLSRPSSAKAGSCYLNKHHSGIAKTQKEGEDASLYSKRYNQSMVTAELQRLAEKQAARQYSPSSHINLLTQQVTNLNLATGIINRSSASAPPTLRPIISPSGPTWSTQSDPQAPENHSSSPGSRSLQTGGFAWEGEVENNVYSQATGVVPQHKYHPTAGSYQLQFALQQLEQQKLQSRQLLDQSRARHQAIFGSQTLPNSNLWTMNNGAGCRISSATASGQKPTTLPQKVVPPPSSCASLVPKPPPNHEQVLRRATSQKASKGSSAEGQLNGLQSSLNPAASVPITSSTDPAHTKI

association with CBP (CBP): negligible association
B2: 6-6CL1: STAMP fragment amino acids 623-834, coactivator interaction domain (CID) (protein)
chain: ENTPKENSMKVREWNNKGGHCCKLETQELEPKFNLMQILQDNGNLSKMQARIAFSAYLQHVQIRLMKDSGGQTFSASWAAKEDEQMELVVRFLKRASNNLQHSLRMVLPSRRLALLERRRILAHQLGDFIIVYNKETEQMAEKKSKKKVEEEEEDGVNMENFQEFIRQASEAELEEVLTFYTQKNKSASVFLGTHSKISKNNNNYSDSGAKG

B3: STAMP: SRC-1 and TIF2 Associated Modulatory Protein, 1277 amino acid human polypeptide, expressed from transfected plasmid (protein)
chain: MARDLEETASSSEDEEVISQEDHPCIMWTGGCRRIPVLVFHADAILTKDNNIRVIGERYHLSYKIVRTDSRLVRSILTAHGFHEVHPSSTDYNLMWTGSHLKPFLLRTLSEAQKVNHFPRSYELTRKDRLYKNIIRMQHTHGFKVFHILPQTFLLPAEYAEFCNSYSKDRGPWIVKPVASSRGRGVYLINNPNQISLEENILVSRYINNPLLIDDFKFDVRLYVLVTSYDPLVIYLYEEGLARFATVRYDQGAKNIRNQFMHLTNYSVNKKSGDYVSCDDPEVEDYGNKWSMSAMLRYLKQEGRDTTALMAHVEDLIIKTIISAELAIATACKTFVPHRSSCFELYGFDVLIDSTLKPWLLEVNLSPSLACDAPLDLKIKASMISDMFTVVGFVCQDPAQRASTRPIYPTFESSRRNPFQKPQRCRPLSASDAEMKNLVGSAREKGPGKLGGSVLGLSMEEIKVLRRVKEENDRRGGFIRIFPTSETWEIYGSYLEHKTSMNYMLATRLFQDRMTADGAPELKIESLNSKAKLHAALYERKLLSLEVRKRRRRSSRLRAMRPKYPVITQPAEMNVKTETESEEEEEVALDNEDEEQEASQEESAGFLRENQAKYTPSLTALVENTPKENSMKVREWNNKGGHCCKLETQELEPKFNLMQILQDNGNLSKMQARIAFSAYLQHVQIRLMKDSGGQTFSASWAAKEDEQMELVVRFLKRASNNLQHSLRMVLPSRRLALLERRRILAHQLGDFIIVYNKETEQMAEKKSKKKVEEEEEDGVNMENFQEFIRQASEAELEEVLTFYTQKNKSASVFLGTHSKISKNNNNYSDSGAKGDHPETIMEEVKIKPPKQQQTTEIHSDKLSRFTTSAEKEAKLVYSNSSSGPTATLQKIPNTHLSSVTTSDLSPGPCHHSSLSQIPSAIPSMPHQPTILLNTVSASASPCLHPGAQNIPSPTGLPRCRSGSHTIGPFSSFQSAAHIYSQKLSRPSSAKAGSCYLNKHHSGIAKTQKEGEDASLYSKRYNQSMVTAELQRLAEKQAARQYSPSSHINLLTQQVTNLNLATGIINRSSASAPPTLRPIISPSGPTWSTQSDPQAPENHSSSPGSRSLQTGGFAWEGEVENNVYSQATGVVPQHKYHPTAGSYQLQFALQQLEQQKLQSRQLLDQSRARHQAIFGSQTLPNSNLWTMNNGAGCRISSATASGQKPTTLPQKVVPPPSSCASLVPKPPPNHEQVLRRATSQKASKGSSAEGQLNGLQSSLNPAASVPITSSTDPAHTKI
localization on the coll3 promoter (coll3 promoter): induced to localize on the coll3 promoter

— patent US7867500B2, “Cofactor that modulates steroid receptor activities” (The United States of America as represented by the …, priority 2004, dated 2011)
